Target: the molecule itself
Test: mass photometry

B1: SH3-domain containing protein 2 (SH3P2), purified full-length protein (natural protein, Arabidopsis thaliana, UniProt Q8VWF1 1-368, looked up)
chain: MDAIRKQASRLREQVARQQQAVFKQFGGGGYGSGLADEAELNQHQKLEKLYISTRAAKHYQRDIVRGVEGYIVTGSKQVEIGTKLSEDSRKYGSENTCTNGNVLTRAALNYGRARAQMEKERGNMLKALGTQVAEPLRAMVLGAPLEDARHLAQRYDRMRQEAEAQATEVARRQAKARESQGNPDILMKLESAEAKLHDLKSNMTILGKEAASALASVEDQQQKLTLERLLSMVESERAYHQRVLQILDQLEGEMVSERQRIEAPSTPSSADSMPPPPSYEEANGVFASQMHDTSTDSMGYFLGEVLFPYHGVTDVELSLSTGEYVVVRKVTGSGWAEGECKGKAGWFPYGYIERRERVLASKVSEVF
- stoichiometry N: 2

— paper doi:10.1101/2023.10.09.561523 (bioRxiv, 2023)
